# Measured values published in doi:10.64898/2025.12.16.694593 (bioRxiv, 2025).
# T1: Mtb Ku (from Ku-HIS, TEV-cleaved) (Mycobacterium tuberculosis, UniProt A5U0X7 1-273)
# T1 sequence: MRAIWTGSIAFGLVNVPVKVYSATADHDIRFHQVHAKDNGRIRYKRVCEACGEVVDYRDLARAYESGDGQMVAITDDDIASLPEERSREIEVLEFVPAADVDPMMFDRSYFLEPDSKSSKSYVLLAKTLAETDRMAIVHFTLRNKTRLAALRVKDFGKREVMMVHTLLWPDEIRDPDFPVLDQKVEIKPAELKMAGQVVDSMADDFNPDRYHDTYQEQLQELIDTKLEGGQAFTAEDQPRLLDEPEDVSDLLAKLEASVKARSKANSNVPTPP
# T2: Mtb Ku released from RFP-Ku by TEV (Mycobacterium tuberculosis, UniProt A5U0X7 1-273)
# T2 sequence: T1 sequence
# B1: 50 bp blunt end (dsDNA)
# DNA 1: GCTAAGTCATCGTCTGTCGATCGATCTCTCGAGTAGTACAGGTCTAGAGG
# DNA 2: CCTCTAGACCTGTACTACTCGAGAGATCGATCGACAGACGATGACTTAGC
# B2: 32/20dT DNA (called 30 bp/20 dT in legends) (dsDNA)
# DNA 1: GCCCTGCTGCCGACCAACGATGGTTACATTCC
# DNA 2: GGAATGTAACCATCGTTGGTCGGCAGCAGGGCTTTTTTTTTTTTTTTTTTTT
# How the values were obtained:
# [1] = molecular target: T1, Mtb Ku (from Ku-HIS, TEV-cleaved); assay: EMSA
# [2] = molecular target: T2, Mtb Ku released from RFP-Ku by TEV; assay: EMSA
Binder,binding result [1],binding result [2]
B1,binds,
B2,binds,binds
